From patent publication US20100260668A1 (published 2010)

Biological target: T1, VEGF (UniProt P15692-4 27-191)
T1 construct: Bought reagent; also called vascular endothelial growth factor
Assay: SPR (Biacore), DVD-Ig captured, VEGF in solution

T1 sequence (P15692 other isoform, or with tags, fused parts or gaps limits assumed): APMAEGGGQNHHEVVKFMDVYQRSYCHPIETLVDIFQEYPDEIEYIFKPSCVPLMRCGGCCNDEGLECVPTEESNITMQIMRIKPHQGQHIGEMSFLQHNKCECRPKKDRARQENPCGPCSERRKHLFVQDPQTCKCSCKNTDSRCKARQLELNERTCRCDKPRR

| Binder | Kd | koff | kon |
| --- | --- | --- | --- |
| DVD522 (bispecific antibody, human IgG1, kappa, lambda, L234A L235A, DVD-Ig; N-term; VD AB071 (VEGF), C-term; VD AB073 (DLL4); HC linker long, LC linker long; also called DVD522H; DVD522L) heavy: not shown light: DIQMTQSPSSLSASVGDRVTITCRASQVIRRSLAWYQQKPGKAPKLLIYAASNLASGVPSRFSGSGSGTDFTLTISSLQPEDFATYYCQQSNTSPLTFGQGTKVEIKRTVAAPSVFIFPPQAVVTQESALTTSPGETVTLTCRSSTGAVTTSNYANWVQEKPDHLFTGLIGGTNNRAPGVPARFSGSLIGDKAALTITGAQTEDEAIYFCALWYSNHWVFGGGTKLTVLGQPKAAPSVTLFPPSSEELQANKATLVCLISDFYPGAVTVAWKADSSPVKAGVETTTPSKQSNNKYAASSYLSLTPEQWKSHRSYSCQVTHEGSTVEKTVAPTECS | 450 pM | 0.00022 s⁻¹ | 489000 M⁻¹ s⁻¹ |
| DVD534 (bispecific antibody, human IgG1, kappa, lambda, L234A L235A, DVD-Ig; N-term; VD AB071 (VEGF), C-term; VD AB073 (DLL4); HC linker short, LC linker long; also called DVD534H; DVD534L) heavy: not shown light: DIQMTQSPSSLSASVGDRVTITCRASQVIRRSLAWYQQKPGKAPKLLIYAASNLASGVPSRFSGSGSGTDFTLTISSLQPEDFATYYCQQSNTSPLTFGQGTKVEIKRTVAAPSVFIFPPQAVVTQESALTTSPGETVTLTCRSSTGAVTTSNYANWVQEKPDHLFTGLIGGTNNRAPGVPARFSGSLIGDKAALTITGAQTEDEAIYFCALWYSNHWVFGGGTKLTVLGQPKAAPSVTLFPPSSEELQANKATLVCLISDFYPGAVTVAWKADSSPVKAGVETTTPSKQSNNKYAASSYLSLTPEQWKSHRSYSCQVTHEGSTVEKTVAPTECS | 449 pM | 0.000168 s⁻¹ | 374000 M⁻¹ s⁻¹ |
| DVD492 (bispecific antibody, human IgG1, kappa, DVD-Ig; N-term; VD AB071 (VEGF), C-term; VD AB072 (DLL4); HC linker short, LC linker short; also called DVD492H; DVD492L) heavy: not shown light: DIQMTQSPSSLSASVGDRVTITCRASQVIRRSLAWYQQKPGKAPKLLIYAASNLASGVPSRFSGSGSGTDFTLTISSLQPEDFATYYCQQSNTSPLTFGQGTKVEIKRTVAAPDIQMTQSSSYLSVSLGGRVTITCKASDHINNWLAWYQQKPGNAPRLLISGATSLETGVPSRFSGSGSGKDYTLSITSLQTEDVATYYCQQYWSIPLTFGAGTKLELKRTVAAPSVFIFPPSDEQLKSGTASVVCLLNNFYPREAKVQWKVDNALQSGNSQESVTEQDSKDSTYSLSSTLTLSKADYEKHKVYACEVTHQGLSSPVTKSFNRGEC | 49.9 pM | 7.6e-06 s⁻¹ | 152000 M⁻¹ s⁻¹ |
| DVD504 (bispecific antibody, human IgG1, kappa, DVD-Ig; N-term; VD AB071 (VEGF), C-term; VD AB072 (DLL4); HC linker long, LC linker short; also called DVD504H; DVD504L) heavy: not shown light: DIQMTQSPSSLSASVGDRVTITCRASQVIRRSLAWYQQKPGKAPKLLIYAASNLASGVPSRFSGSGSGTDFTLTISSLQPEDFATYYCQQSNTSPLTFGQGTKVEIKRTVAAPDIQMTQSSSYLSVSLGGRVTITCKASDHINNWLAWYQQKPGNAPRLLISGATSLETGVPSRFSGSGSGKDYTLSITSLQTEDVATYYCQQYWSIPLTFGAGTKLELKRTVAAPSVFIFPPSDEQLKSGTASVVCLLNNFYPREAKVQWKVDNALQSGNSQESVTEQDSKDSTYSLSSTLTLSKADYEKHKVYACEVTHQGLSSPVTKSFNRGEC | 0.941 pM | 1.52e-07 s⁻¹ | 162000 M⁻¹ s⁻¹ |
| DVD465 (bispecific antibody, human IgG1, kappa, DVD-Ig; N-term; VD AB015 (DLL4), C-term; VD AB070 (VEGF); HC linker short, LC linker short; also called DVD465H; DVD465L) heavy: not shown light: DIQMTQSPSSLSASVGDRVTITCRASQDVSTAVAWYQQKPGKAPKLLIYSASFLYSGVPSRFSGSGSGTDFTLTISSLQPEDFATTYYCQQSYTGTVTFGQGTKVEIKRTVAAPDIQMTQSPSSLSASVGDRVTITCRASQDVSTAVAWYQQKPGKAPKLLIYSASFLYSGVPSRFSGSGSGTDFTLTISSLQPEDFATYYCQQSYTTPPTFGQGTKVEIKRTVAAPSVFIFPPSDEQLKSGTASVVCLLNNFYPREAKVQWKVDNALQSGNSQESVTEQDSKDSTYSLSSTLTLSKADYEKHKVYACEVTHQGLSSPVTKSFNRGEC | 1190 pM | 0.000414 s⁻¹ | 348000 M⁻¹ s⁻¹ |
| DVD477 (bispecific antibody, human IgG1, kappa, L234A L235A, DVD-Ig; N-term; VD AB015 (DLL4), C-term; VD AB070 (VEGF); HC linker long, LC linker short; also called DVD477H; DVD477L) heavy: not shown light: DIQMTQSPSSLSASVGDRVTITCRASQDVSTAVAWYQQKPGKAPKLLIYSASFLYSGVPSRFSGSGSGTDFTLTISSLQPEDFATTYYCQQSYTGTVTFGQGTKVEIKRTVAAPDIQMTQSPSSLSASVGDRVTITCRASQDVSTAVAWYQQKPGKAPKLLIYSASFLYSGVPSRFSGSGSGTDFTLTISSLQPEDFATYYCQQSYTTPPTFGQGTKVEIKRTVAAPSVFIFPPSDEQLKSGTASVVCLLNNFYPREAKVQWKVDNALQSGNSQESVTEQDSKDSTYSLSSTLTLSKADYEKHKVYACEVTHQGLSSPVTKSFNRGEC | 1020 pM | 0.000254 s⁻¹ | 249000 M⁻¹ s⁻¹ |
| DVD458 (bispecific antibody, human IgG1, kappa, L234A L235A, DVD-Ig; N-term; VD AB071 (VEGF), C-term; VD AB069 (DLL4); HC linker long, LC linker short; also called DVD458H; DVD458L) heavy: not shown light: DIQMTQSPSSLSASVGDRVTITCRASQVIRRSLAWYQQKPGKAPKLLIYAASNLASGVPSRFSGSGSGTDFTLTISSLQPEDFATYYCQQSNTSPLTFGQGTKVEIKRTVAAPDIVMTQSPDSLAVSLGERATISCRASESVDNYGISFMKWFQQKPGQPPKLLIYAASNQGSGVPDRFSGSGSGTDFTLTISSLQAEDVAVYYCQQSKEVPWTFGGGTKVEIKRTVAAPSVFIFPPSDEQLKSGTASVVCLLNNFYPREAKVQWKVDNALQSGNSQESVTEQDSKDSTYSLSSTLTLSKADYEKHKVYACEVTHQGLSSPVTKSFNRGEC | 0.281 pM | 3.39e-08 s⁻¹ | 121000 M⁻¹ s⁻¹ |
| DVD464 (bispecific antibody, human IgG1, kappa, DVD-Ig; N-term; VD AB071 (VEGF), C-term; VD AB069 (DLL4); HC linker short, LC linker long; also called DVD464H; DVD464L) heavy: not shown light: DIQMTQSPSSLSASVGDRVTITCRASQVIRRSLAWYQQKPGKAPKLLIYAASNLASGVPSRFSGSGSGTDFTLTISSLQPEDFATYYCQQSNTSPLTFGQGTKVEIKRTVAAPSVFIFPPDIVMTQSPDSLAVSLGERATISCRASESVDNYGISFMKWFQQKPGQPPKLLIYAASNQGSGVPDRFSGSGSGTDFTLTISSLQAEDVAVYYCQQSKEVPWTFGGGTKVEIKRTVAAPSVFIFPPSDEQLKSGTASVVCLLNNFYPREAKVQWKVDNALQSGNSQESVTEQDSKDSTYSLSSTLTLSKADYEKHKVYACEVTHQGLSSPVTKSFNRGEC | 0.77 pM | 7.22e-08 s⁻¹ | 93700 M⁻¹ s⁻¹ |
| DVD471 (bispecific antibody, human IgG1, kappa, L234A L235A, DVD-Ig; N-term; VD AB015 (DLL4), C-term; VD AB070 (VEGF); HC linker long, LC linker long; also called DVD471H; DVD471L) heavy: not shown light: DIQMTQSPSSLSASVGDRVTITCRASQDVSTAVAWYQQKPGKAPKLLIYSASFLYSGVPSRFSGSGSGTDFTLTISSLQPEDFATTYYCQQSYTGTVTFGQGTKVEIKRTVAAPSVFIFPPDIQMTQSPSSLSASVGDRVTITCRASQDVSTAVAWYQQKPGKAPKLLIYSASFLYSGVPSRFSGSGSGTDFTLTISSLQPEDFATYYCQQSYTTPPTFGQGTKVEIKRTVAAPSVFIFPPSDEQLKSGTASVVCLLNNFYPREAKVQWKVDNALQSGNSQESVTEQDSKDSTYSLSSTLTLSKADYEKHKVYACEVTHQGLSSPVTKSFNRGEC | 917 pM | 0.000232 s⁻¹ | 253000 M⁻¹ s⁻¹ |
| DVD483 (bispecific antibody, human IgG1, kappa, DVD-Ig; N-term; VD AB015 (DLL4), C-term; VD AB070 (VEGF); HC linker short, LC linker long; also called DVD483H; DVD483L) heavy: not shown light: DIQMTQSPSSLSASVGDRVTITCRASQDVSTAVAWYQQKPGKAPKLLIYSASFLYSGVPSRFSGSGSGTDFTLTISSLQPEDFATTYYCQQSYTGTVTFGQGTKVEIKRTVAAPSVFIFPPDIQMTQSPSSLSASVGDRVTITCRASQDVSTAVAWYQQKPGKAPKLLIYSASFLYSGVPSRFSGSGSGTDFTLTISSLQPEDFATYYCQQSYTTPPTFGQGTKVEIKRTVAAPSVFIFPPSDEQLKSGTASVVCLLNNFYPREAKVQWKVDNALQSGNSQESVTEQDSKDSTYSLSSTLTLSKADYEKHKVYACEVTHQGLSSPVTKSFNRGEC | 963 pM | 0.000872 s⁻¹ | 905000 M⁻¹ s⁻¹ |
| DVD498 (bispecific antibody, human IgG1, kappa, DVD-Ig; N-term; VD AB071 (VEGF), C-term; VD AB072 (DLL4); HC linker long, LC linker long; also called DVD498H; DVD498L) heavy: not shown light: DIQMTQSPSSLSASVGDRVTITCRASQVIRRSLAWYQQKPGKAPKLLIYAASNLASGVPSRFSGSGSGTDFTLTISSLQPEDFATYYCQQSNTSPLTFGQGTKVEIKRTVAAPSVFIFPPDIQMTQSSSYLSVSLGGRVTITCKASDHINNWLAWYQQKPGNAPRLLISGATSLETGVPSRFSGSGSGKDYTLSITSLQTEDVATYYCQQYWSIPLTFGAGTKLELKRTVAAPSVFIFPPSDEQLKSGTASVVCLLNNFYPREAKVQWKVDNALQSGNSQESVTEQDSKDSTYSLSSTLTLSKADYEKHKVYACEVTHQGLSSPVTKSFNRGEC | 176 pM | 2.85e-05 s⁻¹ | 162000 M⁻¹ s⁻¹ |
| DVD510 (bispecific antibody, human IgG1, kappa, DVD-Ig; N-term; VD AB071 (VEGF), C-term; VD AB072 (DLL4); HC linker short, LC linker long; also called DVD510H; DVD510L) heavy: not shown light: DIQMTQSPSSLSASVGDRVTITCRASQVIRRSLAWYQQKPGKAPKLLIYAASNLASGVPSRFSGSGSGTDFTLTISSLQPEDFATYYCQQSNTSPLTFGQGTKVEIKRTVAAPSVFIFPPDIQMTQSSSYLSVSLGGRVTITCKASDHINNWLAWYQQKPGNAPRLLISGATSLETGVPSRFSGSGSGKDYTLSITSLQTEDVATYYCQQYWSIPLTFGAGTKLELKRTVAAPSVFIFPPSDEQLKSGTASVVCLLNNFYPREAKVQWKVDNALQSGNSQESVTEQDSKDSTYSLSSTLTLSKADYEKHKVYACEVTHQGLSSPVTKSFNRGEC | 73.3 pM | 1.2e-05 s⁻¹ | 164000 M⁻¹ s⁻¹ |
| DVD516 (bispecific antibody, human IgG1, lambda, DVD-Ig; N-term; VD AB071 (VEGF), C-term; VD AB073 (DLL4); HC linker short, LC linker short; also called DVD516H; DVD516L) heavy: not shown light: DIQMTQSPSSLSASVGDRVTITCRASQVIRRSLAWYQQKPGKAPKLLIYAASNLASGVPSRFSGSGSGTDFTLTISSLQPEDFATYYCQQSNTSPLTFGQGTKVEIKRTVAAPQAVVTQESALTTSPGETVTLTCRSSTGAVTTSNYANWVQEKPDHLFTGLIGGTNNRAPGVPARFSGSLIGDKAALTITGAQTEDEAIYFCALWYSNHWVFGGGTKLTVLGQPKAAPSVTLFPPSSEELQANKATLVCLISDFYPGAVTVAWKADSSPVKAGVETTTPSKQSNNKYAASSYLSLTPEQWKSHRSYSCQVTHEGSTVEKTVAPTECS | 781 pM | 0.00028 s⁻¹ | 358000 M⁻¹ s⁻¹ |
| DVD528 (bispecific antibody, human IgG1, lambda, DVD-Ig; N-term; VD AB071 (VEGF), C-term; VD AB073 (DLL4); HC linker long, LC linker short; also called DVD528H; DVD528L) heavy: not shown light: DIQMTQSPSSLSASVGDRVTITCRASQVIRRSLAWYQQKPGKAPKLLIYAASNLASGVPSRFSGSGSGTDFTLTISSLQPEDFATYYCQQSNTSPLTFGQGTKVEIKRTVAAPQAVVTQESALTTSPGETVTLTCRSSTGAVTTSNYANWVQEKPDHLFTGLIGGTNNRAPGVPARFSGSLIGDKAALTITGAQTEDEAIYFCALWYSNHWVFGGGTKLTVLGQPKAAPSVTLFPPSSEELQANKATLVCLISDFYPGAVTVAWKADSSPVKAGVETTTPSKQSNNKYAASSYLSLTPEQWKSHRSYSCQVTHEGSTVEKTVAPTECS | 413 pM | 0.00016 s⁻¹ | 388000 M⁻¹ s⁻¹ |
